Changes are numbered by the printed parent chain.

Test [1] addresses T1, antibody-half molecule A1 with PF1H and PF1L-k0 (PF1H-DA303v2/PF1L-k0). Description: SPR (Biacore T200), about 50 RU of half molecule A captured on chip-bound biotinylated antigen peptide, half molecule B at 2.5 mg/mL as analyte. The protocol:
(§1) The interaction between the obtained antibody-half molecules was analyzed using Biacore (registered trademark) T200. Biotin CAPture Kit, Series S (GE Healthcare) was used for the measurement, and HBS-EP+10X (GE Healthcare) diluted 1/10th was used as a running buffer. The measurement temperature was 25° C. For the sensor chip, Series S Sensor Chip CAP (GE Healthcare) onto which previously-biotinylated antigen peptides were allowed to interact and thereby immobilized was used. These chips were allowed to capture approximately 50 RU of the antibody-half molecule A of interest and then interact with the antibody-half molecule B of interest diluted with the running buffer at 2.5 mg/mL for 180 seconds at a flow rate of 30 μL/min, and measurement was carried out. The molar binding ratio was calculated based on the following Formula 2. The antibody-half molecule A captured on the chip was washed as described in the instructions attached to the kit, and the chip was regenerated and reused.
(§2) At this time, for the antibody-half molecules to be captured, PF1H (SEQ ID NO: 22), which is the H chain variable region portion of the anti-human IL6 receptor antibody described in WO 2009/041621, was used as the H chain variable region portion, PF1L (SEQ ID NO: 23), which is the L chain variable region portion of the anti-human IL6 receptor antibody described in WO 2009/041621, was used as the L chain variable region portion, and k0 was used as the L chain constant region portion. In addition, for the antibody-half molecules used as analytes, IC17H (SEQ ID NO: 24), which is the anti-KLH antibody described in WO 2015/174439, was used as the H chain variable region, IC17L (SEQ ID NO: 25), which is the anti-KLH antibody described in WO 2015/174439, was used as the L chain variable region, and k0 was used as the L chain constant region.
On the technique in general: SPR reads the build-up and loss of mass on a sensor chip optically.

Test [2] concerns the target T1, antibody-half molecule A1 with PF1H and …. As to the kind of experiment: SPR (Biacore T200), about 50 RU of half molecule A captured on chip-bound biotinylated antigen peptide, half molecule B at 2.5 mg/mL as analyte (Example 10). The protocol:
as §1
(§3) At this time, for the antibody-half molecule to be captured, PF1H (SEQ ID NO: 22), which is the H chain variable region portion of the anti-human IL6 receptor antibody described in WO 2009/041621, was used as the H chain variable region portion, PF1L (SEQ ID NO: 23), which is the L chain variable region portion of the anti-human IL6 receptor antibody described in WO 2009/041621, was used as the L chain variable region portion, and k0 was used as the L chain constant region portion. In addition, for the antibody-half molecules used as analytes, IC17H (SEQ ID NO: 24), which is the anti-KLH antibody described in WO 2015/174439, was used as the H chain variable region, IC17L (SEQ ID NO: 25), which is the anti-KLH antibody described in WO 2015/174439, was used as the L chain variable region, and k0 was used as L chain constant region.

Test [3] deals with antibody-half molecule A2 with PF1H and PF1L-k0 (PF1H-DA402v2/PF1L-k0). As to the kind of experiment: SPR (Biacore T200), about 50 RU of half molecule A captured on chip-bound biotinylated antigen peptide, half molecule B at 2.5 mg/mL as analyte. The protocol: as §1, §2
Sequence of antibody-half molecule A2 with PF1H and PF1L-k0 (PF1H-DA402v2/PF1L-k0) (heavy, as listed by the source): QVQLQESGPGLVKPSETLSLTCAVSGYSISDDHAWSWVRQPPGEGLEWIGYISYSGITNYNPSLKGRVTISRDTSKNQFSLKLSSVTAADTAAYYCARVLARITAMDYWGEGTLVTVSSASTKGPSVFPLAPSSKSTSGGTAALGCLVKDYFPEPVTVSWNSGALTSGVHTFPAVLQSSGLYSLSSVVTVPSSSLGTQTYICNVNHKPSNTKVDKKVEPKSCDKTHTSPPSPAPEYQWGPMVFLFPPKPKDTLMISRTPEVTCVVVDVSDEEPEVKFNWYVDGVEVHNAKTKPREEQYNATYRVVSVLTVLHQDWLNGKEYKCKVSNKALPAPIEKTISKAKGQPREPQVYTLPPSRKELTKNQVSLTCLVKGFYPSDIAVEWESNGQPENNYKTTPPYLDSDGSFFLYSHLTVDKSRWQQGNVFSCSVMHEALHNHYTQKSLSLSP
In test [4] the target is antibody-half molecule A6 with PF1H and PF1L-k0 (PF1H-DA303v2.n.n/PF1L-k0). As to the kind of experiment: SPR (Biacore T200), about 50 RU of half molecule A captured on chip-bound biotinylated antigen peptide, half molecule B at 2.5 mg/mL as analyte (Example 10). The protocol:
as §1, §3

Test [5] concerns the target antibody-half molecule A5 with PF1H and PF1L-k0 (PF1H-DA430v2/PF1L-k0). As to the kind of experiment: SPR (Biacore T200), about 50 RU of half molecule A captured on chip-bound biotinylated antigen peptide, half molecule B at 2.5 mg/mL as analyte. The protocol:
as §1, §2

The target in test [6] is antibody-half molecule A3 with PF1H and PF1L-k0 (PF1H-DA405v2/PF1L-k0). Described as above. As to the method:
as §1, §2

Test [7] addresses antibody-half molecule A4 with PF1H and PF1L-k0 (PF1H-DA424v2/PF1L-k0). The test is described as above. As to the method: as §1, §2
Test [8] addresses antibody-half molecule A7 with PF1H and PF1L-k0 (PF1H-DA303v2.n.HATF.B/PF1L-k0). As to the kind of experiment: SPR (Biacore T200), about 50 RU of half molecule A captured on chip-bound biotinylated antigen peptide, half molecule B at 2.5 mg/mL as analyte (Example 10). The protocol: as §1, §3

T1 sequence (heavy, as listed by the source): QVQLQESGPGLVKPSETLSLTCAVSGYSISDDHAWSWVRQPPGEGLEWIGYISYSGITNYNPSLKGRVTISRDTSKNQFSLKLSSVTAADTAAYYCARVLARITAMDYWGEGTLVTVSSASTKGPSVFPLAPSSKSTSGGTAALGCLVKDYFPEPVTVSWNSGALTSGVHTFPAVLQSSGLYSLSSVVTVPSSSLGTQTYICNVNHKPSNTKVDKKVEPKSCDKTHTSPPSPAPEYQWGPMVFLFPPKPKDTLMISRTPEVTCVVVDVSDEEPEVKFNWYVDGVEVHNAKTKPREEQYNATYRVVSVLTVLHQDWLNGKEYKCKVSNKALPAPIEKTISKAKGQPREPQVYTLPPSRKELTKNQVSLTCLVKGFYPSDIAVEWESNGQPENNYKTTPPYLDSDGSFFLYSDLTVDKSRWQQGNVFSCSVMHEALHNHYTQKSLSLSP
Sequence of antibody-half molecule A6 with PF1H and PF1L-k0 (PF1H-DA303v2.n.n/PF1L-k0) (heavy, as listed by the source): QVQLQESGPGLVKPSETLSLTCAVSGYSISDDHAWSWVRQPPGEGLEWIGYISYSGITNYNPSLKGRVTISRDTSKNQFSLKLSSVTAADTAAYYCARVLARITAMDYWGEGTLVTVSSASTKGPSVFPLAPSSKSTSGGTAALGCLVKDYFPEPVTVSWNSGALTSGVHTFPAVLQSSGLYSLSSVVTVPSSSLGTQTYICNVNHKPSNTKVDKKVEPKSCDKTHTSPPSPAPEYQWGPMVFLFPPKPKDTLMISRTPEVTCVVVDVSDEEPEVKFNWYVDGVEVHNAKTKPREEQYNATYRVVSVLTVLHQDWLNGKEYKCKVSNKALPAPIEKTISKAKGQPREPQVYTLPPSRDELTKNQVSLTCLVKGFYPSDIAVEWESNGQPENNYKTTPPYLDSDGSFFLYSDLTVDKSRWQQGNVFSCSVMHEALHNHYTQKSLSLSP
Sequence of antibody-half molecule A7 with PF1H and PF1L-k0 (PF1H-DA303v2.n.HATF.B/PF1L-k0) (heavy, as listed by the source): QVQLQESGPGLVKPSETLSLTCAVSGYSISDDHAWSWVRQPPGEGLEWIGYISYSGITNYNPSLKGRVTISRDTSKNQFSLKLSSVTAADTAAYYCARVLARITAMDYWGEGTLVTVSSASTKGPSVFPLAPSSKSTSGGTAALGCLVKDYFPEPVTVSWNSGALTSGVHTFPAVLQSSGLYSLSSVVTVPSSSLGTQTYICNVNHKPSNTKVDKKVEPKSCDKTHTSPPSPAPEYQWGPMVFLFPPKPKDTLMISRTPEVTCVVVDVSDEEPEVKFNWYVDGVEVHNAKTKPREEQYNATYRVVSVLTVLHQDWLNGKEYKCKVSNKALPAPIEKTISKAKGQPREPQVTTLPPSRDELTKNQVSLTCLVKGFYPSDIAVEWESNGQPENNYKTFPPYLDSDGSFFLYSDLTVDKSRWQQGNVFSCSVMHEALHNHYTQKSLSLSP
Sequence of antibody-half molecule A3 with PF1H and PF1L-k0 (PF1H-DA405v2/PF1L-k0) (heavy, as listed by the source): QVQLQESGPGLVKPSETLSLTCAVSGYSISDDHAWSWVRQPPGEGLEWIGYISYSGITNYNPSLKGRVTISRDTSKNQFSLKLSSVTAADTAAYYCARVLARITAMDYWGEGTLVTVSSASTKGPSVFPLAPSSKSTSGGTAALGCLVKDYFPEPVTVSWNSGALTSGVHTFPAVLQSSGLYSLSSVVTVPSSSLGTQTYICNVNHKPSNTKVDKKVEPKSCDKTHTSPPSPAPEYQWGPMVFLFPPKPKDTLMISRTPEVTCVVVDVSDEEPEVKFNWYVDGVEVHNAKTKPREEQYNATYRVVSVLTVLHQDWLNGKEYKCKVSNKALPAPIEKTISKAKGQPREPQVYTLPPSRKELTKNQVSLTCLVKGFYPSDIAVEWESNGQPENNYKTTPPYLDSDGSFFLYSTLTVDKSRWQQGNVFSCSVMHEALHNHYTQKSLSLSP
Sequence of antibody-half molecule A4 with PF1H and PF1L-k0 (PF1H-DA424v2/PF1L-k0) (heavy, as listed by the source): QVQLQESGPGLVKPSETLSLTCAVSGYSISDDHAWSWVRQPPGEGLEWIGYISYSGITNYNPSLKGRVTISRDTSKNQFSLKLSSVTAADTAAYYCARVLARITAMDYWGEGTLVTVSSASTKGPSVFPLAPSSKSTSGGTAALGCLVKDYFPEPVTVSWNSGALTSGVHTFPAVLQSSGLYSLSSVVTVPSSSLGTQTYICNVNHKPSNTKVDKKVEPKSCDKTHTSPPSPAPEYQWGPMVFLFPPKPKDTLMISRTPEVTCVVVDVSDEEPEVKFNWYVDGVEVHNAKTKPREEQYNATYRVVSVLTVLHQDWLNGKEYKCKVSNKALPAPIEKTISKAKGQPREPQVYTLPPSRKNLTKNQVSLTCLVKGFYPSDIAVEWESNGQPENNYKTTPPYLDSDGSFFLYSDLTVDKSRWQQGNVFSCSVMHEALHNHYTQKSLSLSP
Sequence of antibody-half molecule A5 with PF1H and PF1L-k0 (PF1H-DA430v2/PF1L-k0) (heavy, as listed by the source): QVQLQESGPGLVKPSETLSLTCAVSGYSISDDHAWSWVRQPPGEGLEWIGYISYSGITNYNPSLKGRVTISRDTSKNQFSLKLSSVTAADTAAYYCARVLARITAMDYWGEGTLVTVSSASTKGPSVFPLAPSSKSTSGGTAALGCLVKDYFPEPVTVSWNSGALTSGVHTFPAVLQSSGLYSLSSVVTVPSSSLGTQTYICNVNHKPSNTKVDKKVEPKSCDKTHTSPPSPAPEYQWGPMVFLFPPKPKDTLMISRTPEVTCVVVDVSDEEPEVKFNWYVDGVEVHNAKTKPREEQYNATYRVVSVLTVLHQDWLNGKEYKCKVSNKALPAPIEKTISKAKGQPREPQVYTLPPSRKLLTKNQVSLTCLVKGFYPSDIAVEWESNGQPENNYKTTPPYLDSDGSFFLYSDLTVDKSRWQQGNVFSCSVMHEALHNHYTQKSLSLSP

B1: antibody-half molecule B1 with IC17H and IC17L-k0 (IC17H-DB220v2/IC17L-k0) (antibody, human IgG1, kappa)
heavy: QVQLQQSGPQLVRPGASVKISCKASGYSFTSYWMHWVNQRPGQGLEWIGMIDPSYSETRLNQKFKDKATLTVDKSSSTAYMQLSSPTSEDSAVYYCALYGNYFDYWGQGTTLTVSSASTKGPSVFPLAPSSKSTSGGTAALGCLVKDYFPEPVTVSWNSGALTSGVHTFPAVLQSSGLYSLSSVVTVPSSSLGTQTYICNVNHKPSNTKVDKKVEPKSCDKTHTSPPSPAPELLGGPSVFLFPPKPKDTLMISRTPEVTCVVVDVSHEEPEVKFNWYVDGVEVHNAKTKPREEQYNSTYRVVSVLTVLHQDWLNGKEYKCKVSNDALPMPIEETISKAKGQPREPQVYTLPPSRDELTKNQVSLTCLVKGFYPSDIAVEWESNGQPENNYKTTPPYLDSDGSFFLYSDLTVDKSRWQQGNVFSCSVMHEALHNHYTQESLSLSP
light: DIQMTQSSSSFSVSLGDRVTITCKASEDIYNRLAWYQQKPGNAPRLLISGATSLETGVPSRFSGSGSGKDYTLSITSLQTEDVATYYCQQYWSTPYTFGGGTKLEVKRTVAAPSVFIFPPSDEQLKSGTASVVCLLNNFYPREAKVQWKVDNALQSGNSQESVTEQDSKDSTYSLSSTLTLSKADYEKHKVYACEVTHQGLSSPVTKSFNRGEC
For B1, the figures for the molar binding ratio in test [1] and in test [2] were 0.38 molar ratio and 0.54 molar ratio, respectively.

B2: antibody-half molecule B2 with IC17H and IC17L-k0 (IC17H-DB402v2/IC17L-k0) (antibody, human IgG1, kappa)
heavy: B1 heavy with D408H
light: B1 light
Turning to B2, the molar binding ratio in test [3] came to 0.63 molar ratio.

B3: antibody-half molecule B6 with IC17H and IC17L-k0 (IC17H-DB220v2.n.n/IC17L-k0) (antibody, human IgG1, kappa)
heavy: B1 heavy with E438K
light: B1 light
Take B3: in test [4], the molar binding ratio turned out to be 0.42 molar ratio.

B4: antibody-half molecule B5 with IC17H and IC17L-k0 (IC17H-DB430v2/IC17L-k0) (antibody, human IgG1, kappa)
heavy: B1 heavy with E356L
light: B1 light
As for B4, the molar binding ratio in test [5] was found to be 0.27 molar ratio.

B5: antibody-half molecule B3 with IC17H and IC17L-k0 (IC17H-DB405v2/IC17L-k0) (antibody, human IgG1, kappa)
heavy: B1 heavy with D408T
light: B1 light
As for B5, the molar binding ratio in test [6] turned out to be 0.54 molar ratio.

B6: antibody-half molecule B4 with IC17H and IC17L-k0 (IC17H-DB424v2/IC17L-k0) (antibody, human IgG1, kappa)
heavy: B1 heavy with E356N
light: B1 light
In the case of B6, in test [7], the molar binding ratio came to 0.25 molar ratio.

B7: antibody-half molecule B7 with IC17H and IC17L-k0 (IC17H-DB220v2.n.HATF.A/IC17L-k0) (antibody, human IgG1, kappa)
heavy: B1 heavy with S363H, F404A, E438K
light: B1 light
B7: the molar binding ratio in test [8] was determined as 0.32 molar ratio.

The record behind these values is patent US20240417464A1 (published 2024).
